# From article PMC1253830
# Experiments:
# Assay in all cases: two-hybrid
# [1] = molecular target: pGBKT7-CcLim15 (Coprinus cinereus Lim15/Dmc1, residues 1-345, fused to the GAL4 DNA-binding domain) (Coprinus cinereus)
# [2] = molecular target: pGBKT7-CcLim15NT 1-104 (Coprinus cinereus)
# [3] = molecular target: pGBKT7-CcLim15CT 104-345 (Coprinus cinereus)
β-galactosidase activity [1],β-galactosidase activity [2],β-galactosidase activity [3],Substance
< 1,,,pGADT7-CcTopIIMD 751-1065 (domain or fragment)
< 1,,,pGADT7-CcTopIINT 1-750 (domain or fragment)
16.5,< 1,3.49,pGADT7-CcTopIICT 1066-1569 (domain or fragment)
